These results are taken from paper PMC4333378, “Human PrimPol is a highly error-prone polymerase regulated by single-stranded DNA binding proteins” (Nucleic Acids Research, 2014).

For one series, the target named is T1, mtSSB (human, UniProt Q04837 17-148).
T1 sequence: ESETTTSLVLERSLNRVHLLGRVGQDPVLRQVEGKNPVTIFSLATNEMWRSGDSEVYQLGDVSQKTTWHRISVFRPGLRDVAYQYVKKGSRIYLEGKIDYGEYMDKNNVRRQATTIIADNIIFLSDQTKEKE
Briefly: EMSA; 10 mM Mg acetate; full shift at less than half the amount needed for RPA; super-shifted bands = multiple SSBs bound; EMSA: 50 mM K acetate, 20 mM Tris-acetate pH 7.9, 10 mM Mg acetate, 1 mM DTT, 60 nM FAM-ssDNA, 60 min at room temperature; 5% native PAGE in 0.5x TBE. The settings on record: protein: recombinant; chain copies: 4; label: 5'-FAM (fluorescein); single strand. On the technique in general: A gel shift assay detects complexes by their altered migration in electrophoresis.

Series [1] addresses RPA (replication protein A) (human, UniProt P27694;P15927;P35244 1-616;1-270;1-121). Briefly: EMSA; 10 mM Mg acetate; SSB/oligo 0-16; more than twice as much RPA as mtSSB needed to fully shift; super-shifted bands = multiple SSBs bound; EMSA: 50 mM K acetate, 20 mM Tris-acetate pH 7.9, 10 mM Mg acetate, 1 mM DTT, 60 nM FAM-ssDNA, 60 min at room temperature; 5% native PAGE in 0.5x TBE. The settings on record: protein: recombinant; copies: 1;1;1; label: 5'-FAM (fluorescein); single strand.

For series [2], the target named is T2, full-length human PrimPol (recombinant) (human, UniProt Q96LW4 1-560).
T2 construct: also called wild-type PrimPol
T2 sequence (looked up): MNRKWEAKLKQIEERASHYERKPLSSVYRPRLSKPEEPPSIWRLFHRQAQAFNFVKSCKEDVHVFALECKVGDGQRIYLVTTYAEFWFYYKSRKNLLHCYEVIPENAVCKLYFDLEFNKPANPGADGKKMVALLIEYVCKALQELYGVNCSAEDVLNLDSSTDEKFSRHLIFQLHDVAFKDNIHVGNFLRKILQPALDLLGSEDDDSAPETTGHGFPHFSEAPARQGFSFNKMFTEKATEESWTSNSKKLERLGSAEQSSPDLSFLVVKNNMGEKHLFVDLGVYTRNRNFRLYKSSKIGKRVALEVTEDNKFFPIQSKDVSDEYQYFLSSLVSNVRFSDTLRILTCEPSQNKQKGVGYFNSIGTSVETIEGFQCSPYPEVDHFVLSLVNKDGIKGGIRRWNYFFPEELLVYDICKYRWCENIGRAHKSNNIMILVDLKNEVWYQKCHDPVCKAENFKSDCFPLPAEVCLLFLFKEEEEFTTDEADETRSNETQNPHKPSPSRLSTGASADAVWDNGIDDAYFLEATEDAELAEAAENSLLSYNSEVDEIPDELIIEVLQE
Briefly: NMR titration; 15N-1H HSQC of 15N-enriched RPA domain (50 uM RPA70N) alone and with 2-fold molar excess (100 uM) of unlabelled PrimPol construct; 25°C; 20 mM HEPES, 80 mM NaCl, 2 mM DTT, 5% deuterium oxide, pH 7.1. The settings on record: both partners purified.

RPA (replication protein A), sequence (P15927 whole entry, chain 2 of 2): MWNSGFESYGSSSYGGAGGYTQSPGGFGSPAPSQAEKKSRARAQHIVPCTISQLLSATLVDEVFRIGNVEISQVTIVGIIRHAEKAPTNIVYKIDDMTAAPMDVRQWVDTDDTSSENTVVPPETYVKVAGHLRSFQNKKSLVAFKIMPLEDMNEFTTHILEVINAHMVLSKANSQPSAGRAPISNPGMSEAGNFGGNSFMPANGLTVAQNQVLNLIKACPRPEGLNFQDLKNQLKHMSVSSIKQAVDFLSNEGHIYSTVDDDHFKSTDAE
RPA (replication protein A), sequence (P35244 whole entry, chain 3 of 2): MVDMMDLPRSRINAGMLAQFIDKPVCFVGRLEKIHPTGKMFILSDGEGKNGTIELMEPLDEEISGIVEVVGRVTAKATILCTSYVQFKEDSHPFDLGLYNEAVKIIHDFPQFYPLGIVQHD

B1: ND-50 ssDNA Template (sequence 16) (ssDNA)
DNA: CGCGCAGGGCGCACAACAGCCTTGAAGACCGAACGACCGAACAGACGACA
On to B1, for which the binding result (with mtSSB; in series [1]) was “binds” throughout.

B2: RPA70N^1–120 (DBD-N of RPA1, N-terminal domain of RPA70) (domain or fragment, human, UniProt P27694 1-120, looked up)
chain: MVGQLSEGAIAAIMQKGDTNIKPILQVINIRPITTGNSPPRYRLLMSDGLNTLSSFMLATQLNPLVEEEQLSSNCVCQIHRFIVNTLKDGRRVVILMELEVLKSAEAVGVKIGNPVPYNE
modifications: 15N-enriched
notes: RPA70 (RPA1) residues 1-120, N-terminal protein recruitment domain
Take B2: the binding result in series [2] is given as “binds”.
